# Experimental data reported in patent US20120100207A1, “PROCESS FOR PRODUCING LIPOSOMES BY TWO-STEP EMULSIFICATION METHOD UTILIZING OUTER AQUEOUS PHASE CONTAINING SPECIFIC DISPERSING AGENT, PROCESS FOR PRODUCING LIPOSOME DISPERSION OR DRY POWDER THEREOF USING THE PROCESS FOR PRODUCING LIPOSOMES, AND LIPOSOME DISPERSION OR DRY POWDER THEREOF PRODUCED …” (KONICA MINOLTA HOLDINGS, INC., priority 2009, published 2012).
# Experiments:
# [1] = Volume mean particle diameter by dynamic light scattering particle size analyzer; type: physicochemical
# Description: The volume mean particle diameter of liposomes in the examplesandthecomparativeexamplesdescribedbelowwasmeasured by the following method.
# The W1/O emulsion was diluted with a chloroform/hexane mixed solvent (volume ratio: 4/6, the specific gravity was made equal to that of the inner aqueous phase) to 10 times, then a particle size distribution was measured with a dynamic light scattering nanotrack particle size analyzer (UPA-EX150, manufactured by Nikkiso Co., Ltd.), and based on this particle size distribution, a volume mean particle diameter was calculated.
# As for the volume mean particle diameter of the specific dispersing agent which forms molecular aggregates, a liposome dispersion (also referred to as a “suspension” hereinafter) prepared in each of the following examples was subjected to the measurement as it was, using the same device. That is to say, a suspension of liposome particles prepared was diluted with a phosphoric acid buffer saline solution (PBS) to 25 times, then a particle size distribution was measured using a dynamic light scattering nanotrack particle size analyzer (UPA-EX150, manufactured by Nikkiso Co., Ltd.), and based on this particle size distribution, a volume mean particle diameter was calculated.
# [2] = in an aqueous solvent; background statement; cited from earlier work
substance,measurement,setting,value
sodium caseinate,particle size distribution of associated substance of molecular aggregates,[1]; solution containing only casein having a higher concentration,150 nm
same,main particle size distribution (volume mean particle diameter),[1]; solution containing only the dispersing agent,15 nm
same,volume mean particle diameter of molecular aggregates (submicelles),[2],about 15 nm
same,volume mean particle diameter of particles of associated molecular aggregates,[2],100 to 200 nm
